The values that follow come from US20220169740A1 (KINDRED BIOSCIENCES, published 2022).

T1: canine FcRn with a poly-His tag / canine B2M heterodimer complex (canine, biotinylated where immobilised on the Biacore chip)
T1 construct: Made in HEK cells, Ni-NTA purified; also called canine FcRn/B2M complex; soluble canine FcRn/B2M complex
T1 chain: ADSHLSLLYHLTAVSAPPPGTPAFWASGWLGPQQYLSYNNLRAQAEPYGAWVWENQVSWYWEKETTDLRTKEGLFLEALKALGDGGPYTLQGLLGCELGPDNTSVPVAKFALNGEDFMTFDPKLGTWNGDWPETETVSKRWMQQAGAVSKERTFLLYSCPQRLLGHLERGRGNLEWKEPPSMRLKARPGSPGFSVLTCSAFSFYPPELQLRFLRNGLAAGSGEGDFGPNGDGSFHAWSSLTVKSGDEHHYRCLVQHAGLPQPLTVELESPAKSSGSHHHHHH
T1 b2m: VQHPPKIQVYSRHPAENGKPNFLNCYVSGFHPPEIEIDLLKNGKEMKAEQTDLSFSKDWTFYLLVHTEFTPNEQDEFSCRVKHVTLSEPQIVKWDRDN

B1: Equine TrkA ECD v2-variant equine IgG2 Fc (Protein A+, C1q-, CD16-) (Fc fusion)
chain: VSFPASVHLQTAVEQHHWCIPFSVDGQPAPTLRWLFNGSVLNETSFIFTEFLESAANETMRHGCLRLNQPTHVNNGNYTLLATNPYGQDSASVMVAFMDNPFEFNPEDPIPVSFSPVDTNSTSRDPPCVLSAEGVIPIPSVPKPQCPPYTHSKFLGGPSVFIFPPNPKDTLMISRTPVVTCVVVNLSDQYPDVQFSWYVDNTEVHSAITKQREAQFNSTYRVVSVLPIQHQDWLSGKEFKCSVTNVGVPQPISRAISRGKGPSRVPQVYVLPPHPDELAKSKVSVTCLVKDFYPPDISVEWQSNRWPELEGKYSTTPAQLDGDGSYFLYSKLSLETSRWQQVESFTCAVMHEALHNHYTKTDISESLGK
notes: CHO; also called equine TrkA ECD v2 fusion polypeptide; equine TrkA v2
B2: wild-type canine IgG-B Fc polypeptide (other)
chain: PAPEMLGGPSVFIFPPKPKDTLLIARTPEVTCVVVDLDPEDPEVQISWFVDGKQMQTAKTQPREEQFNGTYRVVSVLPIGHQDWLKGKQFTCKVNNKALPSPIERTISKARGQAHQPSVYVLPPSREELSKNTVSLTCLIKDFFPPDIDVEWQSNGQQEPESKYRTTPPQLDEDGSYFLYSKLSVDKSRWQRGDTFICAVMHEALHNHYTQESLSHSPGK
notes: Expressed from plasmid pFASEBA in E. coli with an SASA tag; also called wildtype IgG-B Fc polypeptide; not shown: SASA tag
B3: variant canine IgG-B Fc polypeptide L(23)F (other)
chain: B2 chain with L23F
notes: E. coli expressed, with SASA tag; also called F00; not shown: SASA tag
B4: variant canine IgG-B Fc polypeptide L(23)Y (other)
chain: B2 chain with L23Y
notes: E. coli expressed, with SASA tag; also called Y00; not shown: SASA tag
B5: variant canine IgG-B Fc polypeptide YTE (other, not shown: small tags and cut ends)
chain: B2 chain with L23Y, A25T, T27E
notes: also called Leu23Tyr Ala25Thr Thr27Glu
B6: variant canine IgG-B Fc polypeptide L(23)M (other)
chain: B2 chain with L23M
notes: not shown: SASA tag
B7: Feline TrkA ECD v3-wildtype feline IgG2 Fc (Fc fusion)
chain: VSFPASVQLHAAVELHHWCIPFSVDGQPAPSLRWLFNGSVLNETSFIFTEFLEPAANETVRHGCLRLNQPTHVNNGNYTLLAANPSGRAAASVLAAFMDNPSGGGSGGGSPKTASTIESKTGEGPKCPVPEIPGAPSVFIFPPKPKDTLSISRTPEVTCLVVDLGPDDSNVQITWFVDNTEMHTAKTRPREEQFNSTYRVVSVLPILHQDWLKGKEFKCKVNSKSLPSAMERTISKAKGQPHEPQVYVLPPTQEELSENKVSVTCLIKGFHPPDIAVEWEITGQPEPENNYQTTPPQLDSDGTYFLYSRLSVDRSHWQRGNTYTCSVSHEALHSHHTQKSLTQSPGK
notes: CHO; also called feline TrkA ECD v3 fusion polypeptide; feline TrkA v3
B8: Equine TrkA ECD v3-variant equine IgG2 Fc (Protein A+, C1q-, CD16-) (Fc fusion)
chain: VSFPASVHLQTAVEQHHWCIPFSVDGQPAPTLRWLFNGSVLNETSFIFTEFLESAANETMRHGCLRLNQPTHVNNGNYTLLATNPYGQDSASVMVAFMDNPPPCVLSAEGVIPIPSVPKPQCPPYTHSKFLGGPSVFIFPPNPKDTLMISRTPVVTCVVVNLSDQYPDVQFSWYVDNTEVHSAITKQREAQFNSTYRVVSVLPIQHQDWLSGKEFKCSVTNVGVPQPISRAISRGKGPSRVPQVYVLPPHPDELAKSKVSVTCLVKDFYPPDISVEWQSNRWPELEGKYSTTPAQLDGDGSYFLYSKLSLETSRWQQVESFTCAVMHEALHNHYTKTDISESLGK
notes: CHO; also called equine TrkA ECD v3 fusion polypeptide; equine TrkA v3
B9: Canine TrkA ECD v2-wildtype canine IgG-B Fc (Fc fusion)
chain: VSFPASVQLHEAVELHHWCIPFSVDGQPAPSLRWLFNGSVLNETSFIFTEFLEPVANETVRHGCLRLNQPTHVNNGNYTLLAANPSGRAAAFVMAAFMDNPFEFNPEDPIPVSFSPVDTNSTSGDSGGGSGGGSRPPDCPKCPAPEMLGGPSVFIFPPKPKDTLLIARTPEVTCVVVDLDPEDPEVQISWFVDGKQMQTAKTQPREEQFNGTYRVVSVLPIGHQDWLKGKQFTCKVNNKALPSPIERTISKARGQAHQPSVYVLPPSREELSKNTVSLTCLIKDFFPPDIDVEWQSNGQQEPESKYRTTPPQLDEDGSYFLYSKLSVDKSRWQRGDTFICAVMHEALHNHYTQESLSHSPGK
notes: made in CHO cells; also called canine TrkA ECD v2 fusion polypeptide; canine TrkA v2
B10: Canine TrkA ECD v3-wildtype canine IgG-B Fc (Fc fusion)
chain: VSFPASVQLHEAVELHHWCIPFSVDGQPAPSLRWLFNGSVLNETSFIFTEFLEPVANETVRHGCLRLNQPTHVNNGNYTLLAANPSGRAAAFVMAAFMDNPSGGGSGGGSRPPDCPKCPAPEMLGGPSVFIFPPKPKDTLLIARTPEVTCVVVDLDPEDPEVQISWFVDGKQMQTAKTQPREEQFNGTYRVVSVLPIGHQDWLKGKQFTCKVNNKALPSPIERTISKARGQAHQPSVYVLPPSREELSKNTVSLTCLIKDFFPPDIDVEWQSNGQQEPESKYRTTPPQLDEDGSYFLYSKLSVDKSRWQRGDTFICAVMHEALHNHYTQESLSHSPGK
notes: CHO; also called canine TrkA ECD v3 fusion polypeptide; canine TrkA v3
B11: Feline TrkA ECD v2-wildtype feline IgG2 Fc (Fc fusion)
chain: VSFPASVQLHAAVELHHWCIPFSVDGQPAPSLRWLFNGSVLNETSFIFTEFLEPAANETVRHGCLRLNQPTHVNNGNYTLLAANPSGRAAASVLAAFMDNPFEFNPEDPIPVSFSPVDSNSTSGDSGGGSGGGSPKTASTIESKTGEGPKCPVPEIPGAPSVFIFPPKPKDTLSISRTPEVTCLVVDLGPDDSNVQITWFVDNTEMHTAKTRPREEQFNSTYRVVSVLPILHQDWLKGKEFKCKVNSKSLPSAMERTISKAKGQPHEPQVYVLPPTQEELSENKVSVTCLIKGFHPPDIAVEWEITGQPEPENNYQTTPPQLDSDGTYFLYSRLSVDRSHWQRGNTYTCSVSHEALHSHHTQKSLTQSPGK
notes: CHO; also called feline TrkA ECD v2 fusion polypeptide; feline TrkA v2
B12: variant canine IgG-B polypeptide L(23)S (other)
chain: B2 chain with L23S
notes: not shown: SASA tag
B13: fusion protein comprising wild-type canine IgG-B Fc (Fc fusion, not shown: large carriers)
chain: B2 chain
B14: fusion protein comprising variant canine IgG-B Fc K(93)R (Fc fusion, not shown: large carriers)
chain: B2 chain with K93R
notes: also called variant canine IgG-B Fc K(93)R fusion protein

Substitutions are numbered along the chain they refer to. Where “and” joins values, the source holds several entries; their conditions need not be identical. Equal entries are not always repeated.

T2 sequence (P01138 122-241 limits assumed): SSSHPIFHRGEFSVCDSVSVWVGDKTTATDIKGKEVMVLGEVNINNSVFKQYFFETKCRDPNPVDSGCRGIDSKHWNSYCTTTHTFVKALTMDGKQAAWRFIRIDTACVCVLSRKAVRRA
Sequence of human C1q (P02745 23-245 limits assumed, chain 1 of 3): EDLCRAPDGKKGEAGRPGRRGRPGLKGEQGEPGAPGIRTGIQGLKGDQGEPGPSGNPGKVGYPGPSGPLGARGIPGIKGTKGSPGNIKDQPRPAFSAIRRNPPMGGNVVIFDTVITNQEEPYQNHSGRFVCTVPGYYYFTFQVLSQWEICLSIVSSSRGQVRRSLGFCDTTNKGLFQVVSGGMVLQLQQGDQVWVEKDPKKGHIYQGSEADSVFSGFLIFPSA
Sequence of human C1q (P02746 28-253 limits assumed, chain 2 of 3): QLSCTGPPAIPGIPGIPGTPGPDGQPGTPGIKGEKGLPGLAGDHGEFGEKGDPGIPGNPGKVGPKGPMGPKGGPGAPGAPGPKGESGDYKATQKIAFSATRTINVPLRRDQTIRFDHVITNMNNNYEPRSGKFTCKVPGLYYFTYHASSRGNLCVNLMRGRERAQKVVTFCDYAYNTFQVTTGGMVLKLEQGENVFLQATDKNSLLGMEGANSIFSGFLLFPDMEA
Sequence of human C1q (P02747 29-245 limits assumed, chain 3 of 3): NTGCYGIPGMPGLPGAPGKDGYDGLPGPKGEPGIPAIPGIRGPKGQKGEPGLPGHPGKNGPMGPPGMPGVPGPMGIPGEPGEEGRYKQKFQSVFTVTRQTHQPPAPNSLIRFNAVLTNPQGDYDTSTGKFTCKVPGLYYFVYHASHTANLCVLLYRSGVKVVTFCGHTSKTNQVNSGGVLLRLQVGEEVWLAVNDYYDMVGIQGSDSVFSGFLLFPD

One assay concerns the target T2, human NGF (Sino Biological, Inc.; Catalog No. 11050-HNAC) (human, UniProt P01138 122-241, limits assumed, biotinylated in the Octet assay of Example 3 (sites not given); not biotinylated in the TF1 assay). In words: cell-based or functional assay.
Consider B1, for which the “IC50, TF1 cell proliferation assay (CellTiter-Glo luminescence; NGF at 10 ng/ml)” value is 5.4 nM.

Another assay addresses T1, canine FcRn with a poly-His tag / …. In words: SPR (Biacore T200), steady state, 25 C, pH 6.0; SASA-tagged Fc polypeptide immobilised on CM5 chip, canine FcRn/B2M complex 12.5-200 nM as analyte. As for the experimental part:
Binding analysis was performed using a Biacore T200. Briefly, the lead variant canine IgG-B Fc polypeptides with an SASA tag were each immobilized to a Series S Sensor Chip CM5. […] A running buffer of 10 mM HEPES, 500 mM NaCl, 3 mM EDTA, 0.005% Tween-20, pH 6.0 was used. A buffer only blank curve was used as a control.
(Surface plasmon resonance follows binding to a sensor surface in real time, without labels.)
With B2, binding was characterised by a dissociation constant (Kd) of 1250 nM.

For the molecule B3, the Kd is 367 nM.

Molecule B4 came in with a Kd of 113 nM.

With B5, the Kd is 86.2 nM.

In turn, B6 displayed a Kd of 406 nM.

The next assay addresses T2, human NGF (Sino Biological, Inc.; …). Kind of assay: BLI (Octet); biotinylated human NGF on streptavidin tips, TrkA-Fc 25 ug/mL; 1:1 fit. The method, then: Binding activity of canine, feline, and equine TrkA ECD v2 and v3 fusion polypeptides prepared in Example 2 (SEQ ID NOs: 16, 17, 19, 20, 22, and 23) to commercially-available human NGF was considered. The binding analysis was performed using a biosensor Octet as follows. Briefly, human NGF (Sino Biological, Inc.; Catalog No. 11050-HNAC) was biotinylated. The free unreacted biotin was removed from biotinylated NGF by extensive dialysis. Biotinylated NGF was captured on streptavidin sensor tips. The association of NGF with TrkA-Fc (25 ug/mL) was monitored for 600 seconds. Dissociation was monitored for 600 seconds. A buffer only blank curve was subtracted to correct for any drift. The data were fit to a 1:1 binding model using ForteBio™ data analysis software to determine the kₒₙ, koff, and the Kd. The buffer for dilutions and all binding steps was: 20 mM phosphate, 150 mM NaCl, pH 7.2.
FIG. 1 and FIG. 2 are sensorgrams showing that canine, feline, and equine TrkA ECD v2 and v3 fusion polypeptides all bind NGF. […] Irrelevant canine and feline IgG-Fc fusion proteins were used as a negative control.
(In general: Biolayer interferometry detects binding as a change in optical thickness at a sensor tip.)
Take B7: the Kd was around 1 nM.

As to B8, the Kd is around 1 nM.

In turn, B1 had a Kd of around 1 nM.

Molecule B9 had a Kd of around 1 nM.

The molecule B10 returned a Kd of around 1 nM.

Consider B11, for which the Kd is around 1 nM.

The next assay deals with T1, canine FcRn with a poly-His tag / …. Kind of assay: SPR (Biacore T200), pH 6.0; biotinylated canine FcRn/B2M complex immobilised, Fc polypeptide as analyte. The text has this:
The koff of each of the lead variant canine IgG-B polypeptides was further investigated. Biotinylated canine FcRn/B2M complex was immobilized on a Biacore chip and exposed to each variant canine IgG-B polypeptide as an analyte using a Biacore T200 at pH 6.0.
Regarding B2, the koff came out at 0.122 s⁻¹.

Consider B3, for which the koff was 0.0631 s⁻¹ and 0.0847 s⁻¹.

The molecule B12 registered a koff of 0.241 s⁻¹.

Molecule B4 had a koff of 0.0138 s⁻¹.

In turn, B6 yielded a koff of 0.126 s⁻¹.

Another assay has as its target human C1q (human, UniProt P02745 23-245; P02746 28-253; P02747 29-245). Kind of assay: method not described.
B13: the binding result was “binds”.

On to B14, for which the binding result is on record as “binds”.

Usually Kd stands for a measure of binding affinity in units of concentration. A lower Kd goes with a tighter complex. What is called koff is the rate constant with which the complex falls apart. The low end stands for a long-lived complex, the high end for a short-lived complex.
